Data: US20090298772A1 (UNIVERSITY OF CHICAGO, published 2009)

T1: menin (endogenous, 293 cell lysate) (UniProt O00255 1-610)
T1 construct: Endogenous protein of transfected 293 cells (a human cell line); Co-immunoprecipitated with FLAG-MLL 1-330; also called endogenous menin; product of the MEN1 tumor suppressor gene
T1 sequence (looked up): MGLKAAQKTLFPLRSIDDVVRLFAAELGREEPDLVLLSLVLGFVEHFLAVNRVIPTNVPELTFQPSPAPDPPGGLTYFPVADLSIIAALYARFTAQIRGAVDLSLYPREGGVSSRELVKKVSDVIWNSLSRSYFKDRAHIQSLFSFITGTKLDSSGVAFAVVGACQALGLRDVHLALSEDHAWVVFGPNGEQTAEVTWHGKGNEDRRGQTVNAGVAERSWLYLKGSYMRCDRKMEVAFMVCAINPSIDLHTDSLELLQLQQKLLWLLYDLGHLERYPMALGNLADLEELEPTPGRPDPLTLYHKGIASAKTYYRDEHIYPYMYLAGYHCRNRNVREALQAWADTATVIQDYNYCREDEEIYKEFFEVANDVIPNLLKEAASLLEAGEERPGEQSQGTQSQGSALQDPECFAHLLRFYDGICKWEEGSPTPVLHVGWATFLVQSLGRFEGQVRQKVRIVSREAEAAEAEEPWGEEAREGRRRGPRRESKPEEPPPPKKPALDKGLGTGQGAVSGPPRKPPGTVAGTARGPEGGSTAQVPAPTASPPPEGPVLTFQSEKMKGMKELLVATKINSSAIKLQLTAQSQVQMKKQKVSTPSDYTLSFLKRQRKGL

B1: MLL 5-14 peptide (peptide)
peptide: CRWRFPARPG
notes: Synthetic peptide; also called MLL peptide 5-14

What follows are binders tested against T1, menin (endogenous, 293 cell lysate) (assay: competition with FLAG-MLL 1-330 for endogenous menin, co-IP / Western blot (FIG. 1); binding to menin shown only by blocking).
Excerpt: Cell lysates were immunoprecipitated with anti-FLAG antibody (Sigma), separated by SDS-PAGE and blotted with an anti-menin antibody (Bethyl Laboratories Inc. or Santa-Cruz).
CRWRFPARPGTTGG (Synthetic peptide) [MLL peptide 5-18]: binds. SCRWRFPARPGTTGG (Synthetic peptide) [MLL peptide 4-18]: binds. B1: binds. MAHSCRWRFPARPGTTGGGGGGGRRGLGGG (Synthetic peptide) [MLL peptide 1-30]: binds. MAHSCRWRFPARPGTTGGGGGGGRRG (Synthetic peptide) [MLL peptide 1-26]: binds. HSCRWRFPARPG (Synthetic peptide) [MLL peptide 3-14]: binds. SCRWRFPARPG (Synthetic peptide) [MLL peptide 4-14]: binds. MAHSCRWRFPARPG (Synthetic peptide) [MLL peptide 1-14]: binds. MAHSCRWRFPARPGTTGGGGGG (Synthetic peptide) [MLL peptide 1-22]: binds. AHSCRWRFPARPGTTGG (Synthetic peptide) [MLL peptide 2-18]: binds. MAHSCRWRFPARP (Synthetic peptide) [MLL peptide 1-13]: binds. MAHSCRWRFPARPGTTGG (Synthetic peptide) [MLL peptide 1-18]: binds. AHSCRWRFPARPG (Synthetic peptide) [MLL peptide 2-14]: binds. HSCRWRFPARPGTTGG (Synthetic peptide) [MLL peptide 3-18]: binds.
